Assay results published in article PMC2873105 (Virology, 2010).

Molecular target: the molecule itself
Experiment: native gel or EMSA

B1: MBP-Rep78 (adeno-associated virus type 2 Rep78 fused to MBP) (enzyme)
chain: MPGFYEIVIKVPSDLDGHLPGISDSFVNWVAEKEWELPPDSDMDLNLIEQAPLTVAEKLQRDFLTEWRRVSKAPEALFFVQFEKGESYFHMHVLVETTGVKSMVLGRFLSQIREKLIQRIYRGIEPTLPNWFAVTKTRNGAGGGNKVVDECYIPNYLLPKTQPELQWAWTNMEQYLSACLNLTERKRLVAQHLTHVSQTQEQNKENQNPNSDAPVIRSKTSARYMELVGWLVDKGITSEKQWIQEDQASYISFNAASNSRSQIKAALDNAGKIMSLTKTAPDYLVGQQPVEDISSNRIYKILELNGYDPQYAASVFLGWATKKFGKRNTIWLFGPATTGKTNIAEAIAHTVPFYGCVNWTNENFPFNDCVDKMVIWWEEGKMTAKVVESAKAILGGSKVRVDQKCKSSAQIDPTPVIVTSNTNMCAVIDGNSTTFEHQQPLQDRMFKFELTRRLDHDFGKVTKQEVKDFFRWAKDHVVEVEHEFYVKKGGAKKRPAPSDADISEPKRVRESVAQPSTSDAEASINYADRYQNKCSRHVGMNLMLFPCRQCERMNQNSNICFTHGQKDCLECFPVSESQPVSVVKKAYQKLCYIHHIMGKVPDACTACDLVNVDLDDCIFEQ
binding result: binds
